For the assay, the target named is Neisseria meningitidis Cas9 (NmeCas9, from strain 8013), 6×His-tagged (Neisseria meningitidis (strain 8013)) (UniProt C9X1G5).
Chain of UniProt C9X1G5 (C9X1G5 whole entry): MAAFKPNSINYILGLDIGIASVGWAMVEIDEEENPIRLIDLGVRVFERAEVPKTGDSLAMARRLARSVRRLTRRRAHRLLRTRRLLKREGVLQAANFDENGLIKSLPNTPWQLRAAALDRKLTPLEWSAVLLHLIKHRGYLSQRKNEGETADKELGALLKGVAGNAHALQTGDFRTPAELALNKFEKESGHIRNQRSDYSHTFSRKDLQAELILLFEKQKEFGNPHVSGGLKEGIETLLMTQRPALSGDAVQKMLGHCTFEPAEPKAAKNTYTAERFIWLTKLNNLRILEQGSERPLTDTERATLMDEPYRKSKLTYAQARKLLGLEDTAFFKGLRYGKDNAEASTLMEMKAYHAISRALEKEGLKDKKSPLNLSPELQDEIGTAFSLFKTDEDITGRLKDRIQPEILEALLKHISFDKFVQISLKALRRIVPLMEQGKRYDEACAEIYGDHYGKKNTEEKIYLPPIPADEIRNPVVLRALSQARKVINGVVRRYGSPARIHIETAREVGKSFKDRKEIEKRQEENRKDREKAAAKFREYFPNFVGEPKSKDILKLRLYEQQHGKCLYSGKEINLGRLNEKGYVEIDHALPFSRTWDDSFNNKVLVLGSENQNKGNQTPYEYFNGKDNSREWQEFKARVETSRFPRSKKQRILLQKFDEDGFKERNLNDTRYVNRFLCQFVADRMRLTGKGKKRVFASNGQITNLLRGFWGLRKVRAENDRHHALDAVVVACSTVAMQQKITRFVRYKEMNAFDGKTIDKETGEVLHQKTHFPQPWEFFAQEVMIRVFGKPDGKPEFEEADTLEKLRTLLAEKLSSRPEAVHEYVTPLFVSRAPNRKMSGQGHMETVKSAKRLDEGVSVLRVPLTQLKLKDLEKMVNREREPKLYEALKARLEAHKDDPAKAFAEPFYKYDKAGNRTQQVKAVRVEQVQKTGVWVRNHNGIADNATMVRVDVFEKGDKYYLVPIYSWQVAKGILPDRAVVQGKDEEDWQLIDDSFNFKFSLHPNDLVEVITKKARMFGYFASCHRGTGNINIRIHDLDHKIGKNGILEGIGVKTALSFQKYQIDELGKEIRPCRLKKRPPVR

AcrIIC5Smu, untagged (natural protein) yielded an in vitro cleavage of linearized target plasmid by NmeCas9-sgRNA; molar excess of Acr over Cas9 at complete inhibition (fold molar excess of Acr) of 7.

Source of the values: publication PMC6282205.
